Assay results published in patent publication US8927207B2, “miRNAs as therapeutic targets in cancer” (Research Foundation of State University of New York, priority 2008, dated 2015).

How the values were obtained:
Type in all cases: cell-based, human
DHFR protein = experiment: Western immunoblot of DHFR protein after transfection; settings: HCT-116 (wt-p53)
Method: In this experiment, human colon cancer cell lines, HCT-116 (wt-p53), cells were transfected with miR-192 or miR-24. The cells were maintained in McCoy's 5A medium (Life Technologies). The media was supplemented with 10% dialyzed fetal bovine serum (Hyclone Laboratories). The cell line were grown at 37° C. in a humidified incubator with 5% CO2.
The HCT-116 (wt-p53) cells tranfected as follows. The cells (2×10^5) were plated in 6-well plates and transfected with 100 nmol/L of either miR-192 or miR-24 precursors or nonspecific control miR (Ambion) after 24 h with Oligofectamine (Invitrogen) according to the manufacturer's instructions.
At 48 hours after transfection with miR-192 or miR-24 precursors or nonspecific control miRNA, the cells were scraped and lysed in radioimmunoprecipitation assay buffer (Sigma). […] Horseradish peroxidase-conjugated antibodies against mouse or rabbit (1:1,000; Santa Cruz Biotechnology) were used as the secondary antibodies.

HCT-116 (null-p53) cells = experiment: WST-1 cellular proliferation after miR-192 transfection; settings: n=3
Method: (§1) miR-192 inhibits cell proliferation of HCT-116 (wt-p53), RKO (wt-p53) and HT-29 (mut-p53) colon cancer cell lines. To assess the functional significance of miR-192, the impact of miR-192 on cellular proliferation was evaluated using HCT-116 (wt-p53), HCT-116 (null-p53), RKO (wt-p53) and HT-29 (mut-p53) colon cancer cell lines. The human colon cancer cell lines HCT-116 (wt-p53) and HCT-116 (null-p53) were provided by Prof Bert Vogelstein (The Johns Hopkins University) and were maintained in McCoy's 5A medium (Life Technologies). The other two human colon cancer cell lines, RKO (wt-p53) and HT-29 (mut-p53), were obtained from the American Type Culture Collection. The HT-29 (mut-p53) cell line has a missense mutation in codon 273 of p53 resulting in an Argto-His substitution. RKO (wt-p53) and HT-29 (mut-p53) cells were maintained in Eagle's MEM and Iscove's Modified Dulbecco's Medium at the American Type Culture Collection, respectively. All media were supplemented with 10% dialyzed fetal bovine serum (Hyclone Laboratories). All cell lines were grown at 37° C. in a humidified incubator with 5% CO2. The cell lines were transfected as described above (see Examples 1 and 2).
(§2) The cellular proliferation was evaluated as follows. HCT-116 (wt-p53) (FIG. 4A), HCT-116 (null-p53) (FIG. 4C), RKO (wt-p53) (FIG. 4B), and HT-29 cells (FIG. 4D) were plated in 96-well plates in triplicate at 1×10^3 cells per well after transfection with miR-192 precursor (illustrated as—Δ—) or non-specific control miRNA (illustrated as—□—). Cells were cultured for 24, 48, 72, or 96 hours. The absorbance at 450 and 630 nm was measured after incubation with 10 μl of WST-1 for 2 hours. A non-specific miR was used as a negative control.

HCT-116 (wt-p53) cells [1] = experiment: as above; settings: overexpression vs non-specific miR, n=3
Method: as §1, §2

HT-29 (mut-p53) cells = experiment: as above; settings: HT-29, n=3
Method: as §1, §2

RKO (wt-p53) cells = experiment: as above; settings: n=3
Method: as §1, §2

HCT-116 (wt-p53) cells [2] = experiment: cell cycle analysis by flow cytometry; design: cell cycle profile G1/S / cell cycle profile G2/S: unit not given here
Method: To determine whether the miR-192's impact on cellular proliferation was related to cell cycle control, the effect on cell cycle control was analyzed by flow cytometry using HCT-116 (wt-p53) (FIG. 5A) and HCT-116 (null-p53) (FIG. 5B) cells transfected with non-specific control miR (left line graph) or miR-192 (right line graph). This experiment was performed as follows. The HCT-116 (wt-p53) and HCT-116 (null-p53) cells lines as described above (see Example 3) were transfected with miR-192 precursor and the non-specific control miRNA described as above (see Examples 1 and 2). At 36 hours after transfection, the cells were harvested and resuspended at 0.5-1×10^5 cells/ml in modified Krishan buffer containing 0.1% sodium citrate and 0.3% NP-40 and kept at 4° C. Before being analyzed by flow cytometry, cells were treated with 0.02 mg/ml RNase H and stained with 0.05 mg/ml propidium iodide (Sigma).
miR-215 induces G2-arrest in HCT-116 (wt-p53) and U-2 OS cells. To investigate the mechanism by which miR-215 suppressed cell proliferation in HCT-116 (wt-p53) and U-2 OS cells, the impact of miR-215 on cell cycle control was analyzed by flow cytometry at 36 h after transfection. HCT-116 (wt-p53), HCT-116 (null-p53), U-2 OS and MG63 cells were transfected with miR-215 precursor and the non-specific control miRNA described as above. At 36 h after transfection, cells were harvested and resuspended at 0.5-1 10^5 cells/ml in modified Krishan buffer containing 0.1% sodium citrate and 0.3% NP-40 and kept at 4° C. Before analysis by flow cytometry, cells were treated with 0.02 mg/ml RNase H and stained with 0.05 mg/ml propidium iodide (Sigma).

B1: miR-192: microRNA miR-192 (SEQ ID NO:1), transfected into cells as miR-192 precursor (Ambion) (nucleic acid)
chain: GCCGAGACCGAGUGCACAGGGCUCUGACCUAUGAAUUGACAGCCAGUGCUCUCGUCUCCCCUCUGGCUGCCAAUUCCAUAGGUCACAGGUAUGUUCGCCUCAAUGCCAGC
modifications: delivered as precursor, further chemistry not given here
expression of DHFR protein (DHFR protein; 100 nmol/L precursor, 48 hours after transfection): clearly decreased
potency for decreasing DHFR expression (DHFR protein; compared with positive control miR-24): comparable to miR-24
suppression of cellular proliferation (HCT-116 (null-p53) cells): 15%
suppression of cellular proliferation (HCT-116 (wt-p53) cells [1]): over 55%
suppression of cellular proliferation (HT-29 (mut-p53) cells): 24%
suppression of cellular proliferation (RKO (wt-p53) cells): 48%
cell cycle profile G1 (HCT-116 (wt-p53) cells [2]; 36 hours after transfection): 40.84%
cell cycle profile G1/S (HCT-116 (wt-p53) cells [2]; 36 hours after transfection): 2.83
cell cycle profile G2 (HCT-116 (wt-p53) cells [2]; 36 hours after transfection): 44.71%
cell cycle profile G2/S (HCT-116 (wt-p53) cells [2]; 36 hours after transfection): 3.09
cell cycle profile S (HCT-116 (wt-p53) cells [2]; 36 hours after transfection): 14.45%
G1 arrest (HCT-116 (wt-p53) cells [2]; vs non-specific miR): > 2 fold
G2 arrest (HCT-116 (wt-p53) cells [2]; vs non-specific miR): > 3 fold
